Reference: patent publication US20230174652A1 (Regeneron, published 2023)

Legend:
[1] = target: T1, CD3 molecules on human T cells (human, UniProt P07766 23-207); test: cell-based or functional assay
[2] = target: T1, CD3 molecules on human T cells; test: cell-based or functional assay; remark: listed apart in the source

T1 sequence (P07766 23-207): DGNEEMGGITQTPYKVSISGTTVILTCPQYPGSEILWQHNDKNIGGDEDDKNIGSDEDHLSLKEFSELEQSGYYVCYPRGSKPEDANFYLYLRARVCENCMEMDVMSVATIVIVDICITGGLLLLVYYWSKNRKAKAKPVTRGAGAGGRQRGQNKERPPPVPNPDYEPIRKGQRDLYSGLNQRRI

B1: REGN1979 (bispecific antibody, human IgG4 S228P, kappa)
heavy 1: EVQLVESGGGLVQPGRSLRLSCVASGFTFNDYAMHWVRQAPGKGLEWVSVISWNSDSIGYADSVKGRFTISRDNAKNSLYLQMHSLRAEDTALYYCAKDNHYGSGSYYYYQYGMDVWGQGTTVTVSSASTKGPSVFPLAPCSRSTSESTAALGCLVKDYFPEPVTVSWNSGALTSGVHTFPAVLQSSGLYSLSSVVTVPSSSLGTKTYTCNVDHKPSNTKVDKRVESKYGPPCPPCPAPPVAGPSVFLFPPKPKDTLMISRTPEVTCVVVDVSQEDPEVQFNWYVDGVEVHNAKTKPREEQFNSTYRVVSVLTVLHQDWLNGKEYKCKVSNKGLPSSIEKTISKAKGQPREPQVYTLPPSQEEMTKNQVSLTCLVKGFYPSDIAVEWESNGQPENNYKTTPPVLDSDGSFFLYSRLTVDKSRWQEGNVFSCSVMHEALHNHYTQKSLSLSLGK
heavy 2: EVQLVESGGGLVQPGRSLRLSCAASGFTFDDYTMHWVRQAPGKGLEWVSGISWNSGSIGYADSVKGRFTISRDNAKKSLYLQMNSLRAEDTALYYCAKDNSGYGHYYYGMDVWGQGTTVTVASASTKGPSVFPLAPCSRSTSESTAALGCLVKDYFPEPVTVSWNSGALTSGVHTFPAVLQSSGLYSLSSVVTVPSSSLGTKTYTCNVDHKPSNTKVDKRVESKYGPPCPPCPAPPVAGPSVFLFPPKPKDTLMISRTPEVTCVVVDVSQEDPEVQFNWYVDGVEVHNAKTKPREEQFNSTYRVVSVLTVLHQDWLNGKEYKCKVSNKGLPSSIEKTISKAKGQPREPQVYTLPPSQEEMTKNQVSLTCLVKGFYPSDIAVEWESNGQPENNYKTTPPVLDSDGSFFLYSRLTVDKSRWQEGNVFSCSVMHEALHNRFTQKSLSLSLGK
light: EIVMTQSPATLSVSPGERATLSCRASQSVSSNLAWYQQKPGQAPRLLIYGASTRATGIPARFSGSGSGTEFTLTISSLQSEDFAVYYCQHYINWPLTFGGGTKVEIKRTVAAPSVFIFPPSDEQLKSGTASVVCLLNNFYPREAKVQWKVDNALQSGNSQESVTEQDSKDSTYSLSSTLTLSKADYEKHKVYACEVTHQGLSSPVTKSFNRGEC
With B1 the “CD4+ T cell activation (% CD25+), Fold Change (EC50), fixed REGN5837 0 (reference)” value [1] was 1 fold, the “CD4+ T cell activation (% CD25+), REGN1979 EC50 (M), fixed REGN5837 0” value [1] was 9.17e-13 M and the “CD4+ T cell activation (% CD25+), REGN1979 EC50 (M), fixed REGN5837 1.00 × 10^-7” value [1] was 1.16e-13 M. For the same binder, the “CD4+ T cell activation (% CD25+), REGN1979 EC50 (M), fixed REGN5837 1.67 × 10^-8” value [1] was 8.7e-14 M, the “CD4+ T cell activation (% CD25+), REGN1979 EC50 (M), fixed REGN5837 4.63 × 10^-10” value [1] was 1.46e-13 M and the “CD4+ T cell activation (% CD25+), REGN1979 EC50 (M), fixed REGN5837 7.72 × 10^-11” value [1] was 2.08e-13 M. The “CD4+ T-cell Proliferation, Fold Change (EC50), fixed REGN5837 0 (reference)” value [1] was 1 fold, the “CD4+ T-cell Proliferation, REGN1979 EC50 (M), fixed REGN5837 0” value [1] was 1.63e-11 M and the “CD4+ T-cell Proliferation, REGN1979 EC50 (M), fixed REGN5837 1.00 × 10^-7” value [1] was 8.42e-13 M. For the same binder, the “CD4+ T-cell Proliferation, REGN1979 EC50 (M), fixed REGN5837 1.67 × 10^-8” value [1] was 9.31e-13 M, the “CD4+ T-cell Proliferation, REGN1979 EC50 (M), fixed REGN5837 2.78 × 10^-9” value [1] was 4.25e-13 M and the “CD4+ T-cell Proliferation, REGN1979 EC50 (M), fixed REGN5837 4.63 × 10^-10” value [1] was 1.25e-12 M. For the same binder, the “CD4+ T-cell Proliferation, REGN1979 EC50 (M), fixed REGN5837 7.72 × 10^-11” value [1] was 2.36e-12 M, the “CD8+ T cell activation (% CD25+), Fold Change (EC50), fixed REGN5837 0 (reference)” value [1] was 1 fold and the “CD8+ T cell activation (% CD25+), REGN1979 EC50 (M), fixed REGN5837 0” value [1] was 3.38e-12 M. The “CD8+ T cell activation (% CD25+), REGN1979 EC50 (M), fixed REGN5837 1.00 × 10^-7” value [1] was 6.32e-13 M, the “CD8+ T cell activation (% CD25+), REGN1979 EC50 (M), fixed REGN5837 1.67 × 10^-8” value [1] was 5.88e-13 M and the “CD8+ T cell activation (% CD25+), REGN1979 EC50 (M), fixed REGN5837 2.78 × 10^-9” value [1] was 2.68e-13 M. For the same binder, the “CD8+ T cell activation (% CD25+), REGN1979 EC50 (M), fixed REGN5837 4.63 × 10^-10” value [1] was 9.01e-13 M, the “CD8+ T cell activation (% CD25+), REGN1979 EC50 (M), fixed REGN5837 7.72 × 10^-11” value [1] was 1.64e-12 M and the “CD8+ T-cell Proliferation, Fold Change (EC50), fixed REGN5837 0 (reference)” value [1] was 1 fold. For the same binder, the “CD8+ T-cell Proliferation, REGN1979 EC50 (M), fixed REGN5837 0” value [1] was 1.97e-11 M, the “CD8+ T-cell Proliferation, REGN1979 EC50 (M), fixed REGN5837 1.00 × 10^-7” value [1] was 1.55e-12 M and the “CD8+ T-cell Proliferation, REGN1979 EC50 (M), fixed REGN5837 1.67 × 10^-8” value [1] was 8.31e-13 M. For the same binder, the “CD8+ T-cell Proliferation, REGN1979 EC50 (M), fixed REGN5837 2.78 × 10^-9” value [1] was 7.09e-13 M, the “CD8+ T-cell Proliferation, REGN1979 EC50 (M), fixed REGN5837 4.63 × 10^-10” value [1] was 3.43e-12 M and the “CD8+ T-cell Proliferation, REGN1979 EC50 (M), fixed REGN5837 7.72 × 10^-11” value [1] was 8.36e-12 M. For the same binder, the “WSU-DLCL2 Cell Killing, Fold Change (EC50), fixed REGN5837 0 (reference)” value [1] was 1 fold, the “WSU-DLCL2 Cell Killing, REGN1979 EC50 (M), fixed REGN5837 0” value [1] was 2.89e-12 M and the “WSU-DLCL2 Cell Killing, REGN1979 EC50 (M), fixed REGN5837 1.00 × 10^-7” value [1] was 8.53e-14 M. The “WSU-DLCL2 Cell Killing, REGN1979 EC50 (M), fixed REGN5837 1.67 × 10^-8” value [1] was 1.85e-13 M, the “WSU-DLCL2 Cell Killing, REGN1979 EC50 (M), fixed REGN5837 2.78 × 10^-9” value [1] was 3.98e-13 M and the “WSU-DLCL2 Cell Killing, REGN1979 EC50 (M), fixed REGN5837 4.63 × 10^-10” value [1] was 3.46e-13 M. The “WSU-DLCL2 Cell Killing, REGN1979 EC50 (M), fixed REGN5837 7.72 × 10^-11” value [1] was 8.37e-13 M, the “IFN-gamma release, Fold change (CKR), fixed REGN5837 0 (reference)” value [2] was 1 fold and the “IFN-gamma release, REGN1979 EC50 (M), fixed REGN5837 0” value [2] was 1.82e-10 M. For the same binder, the “IFN-gamma release, REGN1979 EC50 (M), fixed REGN5837 1.0 X 10^-7” value [2] was 1.17e-10 M, the “IFN-gamma release, REGN1979 EC50 (M), fixed REGN5837 1.67 X 10^-8” value [2] was 5.34e-11 M and the “IFN-gamma release, REGN1979 EC50 (M), fixed REGN5837 2.78 X 10^-9” value [2] was 2e-10 M. The “IFN-gamma release, REGN1979 EC50 (M), fixed REGN5837 4.63 X 10^-10” value [2] was 6.72e-11 M, the “IFN-gamma release, REGN1979 EC50 (M), fixed REGN5837 7.72 X 10^-11” value [2] was 6.57e-11 M and the “IL-2 release, Fold change (CKR), fixed REGN5837 0 (reference)” value [2] was 1 fold. For the same binder, the “IL-2 release, REGN1979 EC50 (M), fixed REGN5837 0” value [2] was 1.25e-10 M, the “IL-2 release, REGN1979 EC50 (M), fixed REGN5837 1.0 X 10^-7” value [2] was 2.81e-11 M and the “IL-2 release, REGN1979 EC50 (M), fixed REGN5837 1.67 X 10^-8” value [2] was 1.96e-11 M. For the same binder, the “IL-2 release, REGN1979 EC50 (M), fixed REGN5837 2.78 X 10^-9” value [2] was 5.18e-12 M, the “IL-2 release, REGN1979 EC50 (M), fixed REGN5837 4.63 X 10^-10” value [2] was 5.36e-11 M and the “IL-2 release, REGN1979 EC50 (M), fixed REGN5837 7.72 X 10^-11” value [2] was 3.89e-08 M. The “IL-4 release, Fold change (CKR), fixed REGN5837 0 (reference)” value [2] was 1 fold, the “IL-4 release, REGN1979 EC50 (M), fixed REGN5837 0” value [2] was 9.99e-10 M and the “IL-4 release, REGN1979 EC50 (M), fixed REGN5837 1.0 X 10^-7” value [2] was 1.66e-11 M. The “IL-4 release, REGN1979 EC50 (M), fixed REGN5837 1.67 X 10^-8” value [2] was 1.53e-11 M, the “IL-4 release, REGN1979 EC50 (M), fixed REGN5837 2.78 X 10^-9” value [2] was 1.28e-11 M and the “IL-4 release, REGN1979 EC50 (M), fixed REGN5837 4.63 X 10^-10” value [2] was 1.89e-11 M. The “IL-4 release, REGN1979 EC50 (M), fixed REGN5837 7.72 X 10^-11” value [2] was 3.77e-10 M, the “IL-6 release, Fold change (CKR), fixed REGN5837 0 (reference)” value [2] was 1 fold and the “IL-6 release, REGN1979 EC50 (M), fixed REGN5837 0” value [2] was 7.42e-11 M. The “IL-6 release, REGN1979 EC50 (M), fixed REGN5837 1.0 X 10^-7” value [2] was 5.13e-11 M, the “IL-6 release, REGN1979 EC50 (M), fixed REGN5837 1.67 X 10^-8” value [2] was 7.89e-12 M and the “IL-6 release, REGN1979 EC50 (M), fixed REGN5837 2.78 X 10^-9” value [2] was 2.68e-11 M. For the same binder, the “IL-6 release, REGN1979 EC50 (M), fixed REGN5837 4.63 X 10^-10” value [2] was 1.45e-12 M, the “IL-6 release, REGN1979 EC50 (M), fixed REGN5837 7.72 X 10^-11” value [2] was 1.61e-10 M and the “IL-10 release, Fold change (CKR), fixed REGN5837 0 (reference)” value [2] was 1 fold. The “IL-10 release, REGN1979 EC50 (M), fixed REGN5837 0” value [2] was 9.95e-11 M, the “IL-10 release, REGN1979 EC50 (M), fixed REGN5837 1.0 X 10^-7” value [2] was 3.54e-11 M and the “IL-10 release, REGN1979 EC50 (M), fixed REGN5837 1.67 X 10^-8” value [2] was 1.04e-10 M. The “IL-10 release, REGN1979 EC50 (M), fixed REGN5837 2.78 X 10^-9” value [2] was 2.43e-10 M, the “IL-10 release, REGN1979 EC50 (M), fixed REGN5837 4.63 X 10^-10” value [2] was 5.29e-11 M and the “IL-10 release, REGN1979 EC50 (M), fixed REGN5837 7.72 X 10^-11” value [2] was 3.34e-11 M. The “IL-17A release, Fold change (CKR), fixed REGN5837 0 (reference)” value [2] was 1 fold, the “IL-17A release, REGN1979 EC50 (M), fixed REGN5837 0” value [2] was 2.5e-10 M and the “IL-17A release, REGN1979 EC50 (M), fixed REGN5837 1.0 X 10^-7” value [2] was 3.22e-10 M. For the same binder, the “IL-17A release, REGN1979 EC50 (M), fixed REGN5837 1.67 X 10^-8” value [2] was 1.11e-10 M, the “IL-17A release, REGN1979 EC50 (M), fixed REGN5837 2.78 X 10^-9” value [2] was 7.6e-11 M and the “IL-17A release, REGN1979 EC50 (M), fixed REGN5837 4.63 X 10^-10” value [2] was 4.63e-10 M. For the same binder, the “IL-17A release, REGN1979 EC50 (M), fixed REGN5837 7.72 X 10^-11” value [2] was 1.86e-10 M, the “TNF alpha release, Fold change (CKR), fixed REGN5837 0 (reference)” value [2] was 1 fold and the “TNF alpha release, REGN1979 EC50 (M), fixed REGN5837 0” value [2] was 2.43e-10 M. The “TNF alpha release, REGN1979 EC50 (M), fixed REGN5837 1.0 X 10^-7” value [2] was 5.03e-12 M, the “TNF alpha release, REGN1979 EC50 (M), fixed REGN5837 1.67 X 10^-8” value [2] was 8.69e-13 M and the “TNF alpha release, REGN1979 EC50 (M), fixed REGN5837 2.78 X 10^-9” value [2] was 3.45e-12 M. For the same binder, the “TNF alpha release, REGN1979 EC50 (M), fixed REGN5837 7.72 X 10^-11” value [2] was 1.62e-10 M.
